According to patent US20200148755A1:

Assays:
[1] = biological target: biotinylated human ApoC3 (human) (UniProt P02656); experiment: SPR, biotinylated human ApoC3 on streptavidin chip, scFv-Fc injected, pH 7.4
[2] = biological target: biotinylated human ApoC3 (human) (UniProt P02656); experiment: SPR, biotinylated human ApoC3 on streptavidin chip, scFv-Fc injected, pH 5.5
[3] = biological target: biotinylated human ApoC3 (human) (UniProt P02656); experiment: SPR, biotinylated human ApoC3 on streptavidin chip, scFv-Fc injected; ratio of KD at pH 5.5 to KD at pH 7.4

Chain of UniProt P02656 (P02656 21-99): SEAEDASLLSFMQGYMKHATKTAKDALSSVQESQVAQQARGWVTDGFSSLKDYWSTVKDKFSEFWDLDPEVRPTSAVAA

Binder | Kd [1] [pM] | koff [1] [s⁻¹] | kon [1] [M⁻¹ s⁻¹] | Kd [2] [pM] | koff [2] [s⁻¹] | kon [2] [M⁻¹ s⁻¹] | KD pH 5.5/KD pH 7.4 [3]
5E5WT scFv-Fc antibody (scFv, part only; not given: Linker, domain order, Fc, V domains shown, not shown: another chain or arm of the molecule; a dimerising Fc or GST; small tags and cut ends) VH: QLQLVESGGGLVQPGGSLRLSCAASGFTFGTYSMRWVRQVPRKALEWVSSISTDGGGTAYRDSVKGRFTISRDNAKNTLYLQMNNLKPEDTAIYYCVIAGYSDWGQGTQVTVSS VL: ATMLTQSPGSLSVVPGESASISCKTSQGLVHSDGKTYFYWFLQKPGQSPQQLIYQVSNRASGVPDRFTGSGSGTDFTLKISGVKAEDAGVYYCAQGTYYPHTFGSGTRLEIK | 20 | 1.75e-05 | 823000 | 60 | 2.53e-05 | 393000 | 3
5E5VH5_VLWT scFv-Fc antibody (scFv, part only; not given: Linker, domain order, Fc, V domains shown, not shown: another chain or arm of the molecule; a dimerising Fc or GST; small tags and cut ends) VH: QLQLVESGGGLVQPGGSLRLSCAASGFTFGTYSMRWVRQVPRKALEWVSSIHTDGGGTAYRDSVKGRFTISRDNAKNTLYLQMNNLKPEDTAIYYCVIAGYSDWGQGTQVTVSS VL: ATMLTQSPGSLSVVPGESASISCKTSQGLVHSDGKTYFYWFLQKPGQSPQQLIYQVSNRASGVPDRFTGSGSGTDFTLKISGVKAEDAGVYYCAQGTYYPHTFGSGTRLEIK | 590 | 0.000105 | 178000 | 10900 | 0.0016 | 147000 | 18.5
5E5VH12_VLWT scFv-Fc antibody (scFv, part only; not given: Linker, domain order, Fc, V domains shown, not shown: another chain or arm of the molecule; a dimerising Fc or GST; small tags and cut ends) VH: QLQLVESGGGLVQPGGSLRLSCAASGFTFGTYSMRWVRQVPRKALEWVSSISTDGGGTAYRDSVKGRFTISRDNAKNTLYLQMNNLKPEDTAIYYCVIHGYSDWGQGTQVTVSS VL: ATMLTQSPGSLSVVPGESASISCKTSQGLVHSDGKTYFYWFLQKPGQSPQQLIYQVSNRASGVPDRFTGSGSGTDFTLKISGVKAEDAGVYYCAQGTYYPHTFGSGTRLEIK | 510 | 0.000157 | 308000 | 16000 | 0.00206 | 129000 | 31.4
5E5VHWT_VL8 scFv-Fc antibody (scFv, part only; not given: Linker, domain order, Fc, V domains shown, not shown: another chain or arm of the molecule; a dimerising Fc or GST; small tags and cut ends) VH: QLQLVESGGGLVQPGGSLRLSCAASGFTFGTYSMRWVRQVPRKALEWVSSISTDGGGTAYRDSVKGRFTISRDNAKNTLYLQMNNLKPEDTAIYYCVIAGYSDWGQGTQVTVSS VL: ATMLTQSPGSLSVVPGESASISCKTSQGLVHSDGKTYFYWFLQKPGQSPQQLIYQVSNRASGVPDRFTGSGSGTDFTLKISGVKAEDAGVYYCAHGTYYPHTFGSGTRLEIK | 580 | 0.000221 | 381000 | 4290 | 0.00116 | 269000 | 7.4
